The values that follow come from PMC5638086, “Assessment of the protein interaction between coagulation factor XII and corn trypsin inhibitor by molecular docking and biochemical validation” (Journal of Thrombosis and Haemostasis, 2017).

The target in assay [1] is Full length activated FXIIa (α‐FXIIa) (UniProt P00748).
Assay [2] has as its target T1, α‐FXIIa (Homo sapiens, UniProt P00748).
T1 construct: purchased Enzyme Research Laboratories (Swansea, UK)
T1 sequence (P00748 373-615 limits assumed): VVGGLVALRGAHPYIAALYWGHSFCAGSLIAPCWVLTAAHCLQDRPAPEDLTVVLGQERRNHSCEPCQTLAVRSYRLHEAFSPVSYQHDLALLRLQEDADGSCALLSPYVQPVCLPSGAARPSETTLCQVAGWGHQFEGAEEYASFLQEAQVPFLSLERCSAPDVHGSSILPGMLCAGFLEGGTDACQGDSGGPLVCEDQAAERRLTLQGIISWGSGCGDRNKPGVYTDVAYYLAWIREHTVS
T1 sequence (P00748 20-372 partner limits assumed): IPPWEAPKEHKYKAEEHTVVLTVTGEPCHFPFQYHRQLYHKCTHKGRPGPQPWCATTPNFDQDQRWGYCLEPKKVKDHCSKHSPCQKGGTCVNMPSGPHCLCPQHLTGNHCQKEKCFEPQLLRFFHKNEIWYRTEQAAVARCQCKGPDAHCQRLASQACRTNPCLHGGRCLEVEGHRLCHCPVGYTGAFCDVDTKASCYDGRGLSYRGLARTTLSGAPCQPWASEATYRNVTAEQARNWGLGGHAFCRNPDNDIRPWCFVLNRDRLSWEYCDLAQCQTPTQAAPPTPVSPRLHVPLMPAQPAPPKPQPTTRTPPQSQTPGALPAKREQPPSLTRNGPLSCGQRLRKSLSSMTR
Put plainly: α‐FXIIa enzymatic assay (S‐2302 chromogenic substrate cleavage, pNA release). The assay is classed as biochemical. As to conditions: for IC50 (M): IC50 corresponding to the pIC50; for pIC50 ± SE / IC50: 33 °C, SE of the fit, n = 3–5 independent experiments. As to the method: The enzymatic activity of α‐FXIIa was measured by monitoring the amount of pNA chromophore released from substrate H‐D‐Pro‐Phe‐Arg‐pNA (S‐2302). Assays were performed in a 100‐μL volume at 33 °C in 96‐well plates in a Perkin Elmer (Seer Green, UK) Envision plate reader, and pNA release was followed over a period of 6 h by reading the absorbance at 405 nm. Absorbance values were converted to pNA concentrations by comparison with a standard curve obtained under exactly the same instrument conditions. All absorbance values were within the linear measurement range of the instrument. Initial rates were calculated on the basis of the first 30 min of incubation. To assess the K M, concentrations of substrate peptide between 0.1 mM and 0.6 mM were incubated with 10 nM α‐FXIIa, enzymatic activity was measured as described above, and data were analyzed by non‐linear regression with the Michaelis–Menten algorithm (GRAPHPAD PRISM, version 6.04). To assess the inhibitory mechanism of CTI, 30 nM CTI was incubated with these same concentrations of substrate peptide, the reaction was initiated by the addition of 10 nM α‐FXIIa, enzymatic activity was measured as described above, and data were analyzed by non‐linear regression with the Michaelis–Menten algorithm (GRAPHPAD PRISM, version 6.04) and by linear regression after Lineweaver–Burk transformation. To assay inhibitors, concentrations of CTI variant proteins between 10^−8 M and 10^−5 M or concentrations of peptides between 10^−6 M and 10^−3 M were incubated with 200 μM substrate peptide, the reaction was initiated by addition of 10 nM α‐FXIIa, enzymatic activity was measured as described above, and IC50 values were determined by non‐linear regression analysis (GRAPHPAD PRISM, version 6.04) using the log[inhibitor] versus response – variable slope algorithm with a bottom constraint.

Where [3] appears, read: synthetic peptides 10^−6 M to 10^−3 M.
The mark [4] stands for this setting: synthetic peptides 10^−6 M to 10^−3 M, 200 μM S‐2302, 10 nM α‐FXIIa, initial rate.
[5] abbreviates: synthetic peptides 10^−6 M to 10^−3 M, 200 μM S‐2302, 10 nM α‐FXIIa, initial rate, SEM.
Setting [6] is: CTI variant proteins 10^−8 M to 10^−5 M, 200 μM S‐2302, 10 nM α‐FXIIa, initial rate of first 30 min, A405, SEM.

Where a chain is given by its changes, count along the chain named. Names may count otherwise. Where a SMILES comes first, the peptide text is derived from it. Bridges are numbered along the chain shown (N, C = ends). Where no end group is shown, it is not given here.

Take rec‐CTI R27A (natural protein): in assay [1], the IC50 of inhibition of α‐FXIIa enzymatic activity (S‐2302 cleavage) amounted to 0.17 µM and the pIC50 of inhibition of α‐FXIIa enzymatic activity (S‐2302 cleavage) was determined as 6.78.

As for “IGPRLPWP [CTI(31–38), eight‐mer peptide spanning the loop between helices α1 and α2 (CTI residues 31–38)]”, the “IC50 (M)” value in assay [2] (setting [3]) is “NIA”. Also, the “pIC50 ± SE” value in assay [2] (setting [4]) is listed as “NIA”.

On to “glutathione‐S‐transferase [GST, reference compound]”, for which the “Inhibition of α‐FXIIa, result in words” value in assay [2] (200 μM substrate peptide, 10 nM α‐FXIIa) is reported as “did not inhibit”. For the same molecule, the “pIC50 ± SE” value in assay [2] (CTI variant proteins 10^−8 M to 10^−5 M, 200 μM S‐2302, 10 nM α‐FXIIa, initial rate of first 30 min, A405) is recorded as “NIA”. Also, the “IC50 (M)” value in assay [2] (CTI variant proteins 10^−8 M to 10^−5 M, 200 μM S‐2302, 10 nM α‐FXIIa) was “NIA”.

In assay [1], rec‐CTI R42A/R43A (natural protein) registered an IC50 of inhibition of α‐FXIIa enzymatic activity (S‐2302 cleavage) of 11 µM and a pIC50 of inhibition of α‐FXIIa enzymatic activity (S‐2302 cleavage) of 4.98.

With rec‐CTI R27A/E39A (natural protein), in assay [1], the IC50 of inhibition of α‐FXIIa enzymatic activity (S‐2302 cleavage) stood at 0.26 µM and the pIC50 of inhibition of α‐FXIIa enzymatic activity (S‐2302 cleavage) was found to be 6.58.

On to `CC[C@H](C)[C@@H]1NC(=O)CNC(=O)[C@H](C)NC(=O)[C@H]([C@@H](C)O)NC(=O)[C@H](CCCNC(=N)N)NC(=O)[C@H](CO)NC(=O)[C@H]([C@@H](C)O)NC(=O)[C@H](C(C)C)NC(=O)[C@H](Cc2ccc(O)cc2)NC(=O)[C@H](Cc2c[nH]c3ccccc23)NC(=O)[C@H](CCCNC(=N)N)NC(=O)[C@@H](N)CSSC[C@@H](C(=O)O)NC(=O)[C@H](CCCNC(=N)N)NC(=O)[C@H](CCCNC(=N)N)NC(=O)[C@H](CCCCN)NC(=O)[C@H](CC(C)C)NC(=O)[C@H](CCC(=O)O)NC(=O)[C@@H]2CCCN2C(=O)[C@H](Cc2c[nH]c3ccccc23)NC(=O)[C@@H]2CCCN2C(=O)[C@H](CC(C)C)NC(=O)[C@H](CCCNC(=N)N)NC(=O)[C@@H]2CCCN2C(=O)CNC1=O` [CTI(20–44)] (H-CRWYVTSRTAGIGPRLPWPELKRRC-OH; disulfide 1-25; N-terminus and C-terminus assumed), for which the “Fold reduction in inhibitory activity as compared with rec‐CTI” value in assay [2] (synthetic peptides, relative to recombinant CTI) stood at 2416 fold.

As to “GISTAGPWRRRPPELLKVTY [Scrambled, scrambled control peptide]”, the “IC50 (M)” value in assay [2] (setting [3]) is “NIA”. For the same molecule, the “pIC50 ± SE” value in assay [2] (setting [4]) is given as “NIA”.

In the case of rec‐CTI R42A (natural protein), in assay [1], the IC50 of inhibition of α‐FXIIa enzymatic activity (S‐2302 cleavage) is 0.19 µM and the pIC50 of inhibition of α‐FXIIa enzymatic activity (S‐2302 cleavage) was found to be 6.72.

Take rec‐CTI L35A (natural protein): in assay [1], the IC50 of inhibition of α‐FXIIa enzymatic activity (S‐2302 cleavage) came to 4.9 µM and the pIC50 of inhibition of α‐FXIIa enzymatic activity (S‐2302 cleavage) was 5.31.

As to rec‐CTI W22A (natural protein), in assay [1], the IC50 of inhibition of α‐FXIIa enzymatic activity (S‐2302 cleavage) turned out to be 19 µM and the pIC50 of inhibition of α‐FXIIa enzymatic activity (S‐2302 cleavage) was 4.72.

In assay [1], rec‐CTI E39A (natural protein) came in with an IC50 of inhibition of α‐FXIIa enzymatic activity (S‐2302 cleavage) of 0.14 µM and a pIC50 of inhibition of α‐FXIIa enzymatic activity (S‐2302 cleavage) of 6.85.

In assay [1], rec‐CTI G30W (natural protein) came in with an IC50 of inhibition of α‐FXIIa enzymatic activity (S‐2302 cleavage) of 0.48 µM and a pIC50 of inhibition of α‐FXIIa enzymatic activity (S‐2302 cleavage) of 6.32.

The molecule YVTSRTAGIGPRLPWPELKRR [CTI(23–43)] had an IC50 in assay [2] (setting [5]) of 1150 µM.

In assay [2] (setting [5]), RWYVTSRTAGIGPRLPWPELKRR [CTI(21–43)] showed an IC50 of 457 µM.

As for “recombinant CTI (rec‐CTI) (natural protein)”, in assay [1], the IC50 of inhibition of α‐FXIIa enzymatic activity (S‐2302 cleavage) is 0.12 µM and the pIC50 of inhibition of α‐FXIIa enzymatic activity (S‐2302 cleavage) turned out to be 6.94.

For the molecule RWYVTSRTAGIGPRLPWPELKR [CTI(21–42)], it took 200 µM to reach half-maximal inhibition in assay [2] (setting [5]) (IC50).

In assay [1], rec‐CTI W37A (natural protein) registered an IC50 of inhibition of α‐FXIIa enzymatic activity (S‐2302 cleavage) of 0.11 µM and a pIC50 of inhibition of α‐FXIIa enzymatic activity (S‐2302 cleavage) of 6.97.

rec‐CTI G32W (natural protein): in assay [1], the IC50 of inhibition of α‐FXIIa enzymatic activity (S‐2302 cleavage) is 13 µM and the pIC50 of inhibition of α‐FXIIa enzymatic activity (S‐2302 cleavage) came out at 4.89.

In assay [1], rec‐CTI R27A/R42A (natural protein) yielded an IC50 of inhibition of α‐FXIIa enzymatic activity (S‐2302 cleavage) of 0.16 µM and a pIC50 of inhibition of α‐FXIIa enzymatic activity (S‐2302 cleavage) of 6.8.

B1: L35A: rec‐CTI variant, alanine substitution of Leu35 (protein)
chain: SAGTSCVPGWAIPHNPLPSCRWYVTSRTCGIGPRAPWPELKRRCCRELADIPAYCRCTALSILMDGAIPPGPDAQLEGRLEDLPGCPREVQRGFAATLVTEAECNLATISGVAECPWILGGGTMPSK
modifications: assayed as His6-GST fusion (tag omitted); disulfides
For the molecule B1, the “pIC50 ± SE” value in assay [2] (setting [6]) was determined as 5.31 ± 0.05.

B2: R42A: rec‐CTI variant, alanine substitution of Arg42 (protein)
chain: B1 chain with A35L, R42A
modifications: assayed as His6-GST fusion (tag omitted); disulfides
B2: the “pIC50 ± SE” value in assay [2] (setting [6]) is recorded as 6.72 ± 0.15.

B3: W37A: rec‐CTI variant, alanine substitution of Trp37 (protein)
chain: B1 chain with A35L, W37A
modifications: assayed as His6-GST fusion (tag omitted); disulfides
As to B3, the “pIC50 ± SE” value in assay [2] (setting [6]) was determined as 6.97 ± 0.06.

B4: E39A: rec‐CTI variant, alanine substitution of Glu39 (protein)
chain: B1 chain with A35L, E39A
modifications: assayed as His6-GST fusion (tag omitted); disulfides
Take B4: the “pIC50 ± SE” value in assay [2] (setting [6]) is 6.85 ± 0.06.

B5: R27A/E39A: rec‐CTI double substitution R27A/E39A (protein)
chain: B1 chain with R27A, A35L, E39A
modifications: assayed as His6-GST fusion (tag omitted); disulfides
As for B5, in assay [2] (setting [6]), the “pIC50 ± SE” value was 6.58 ± 0.08.

B6: R42A/R43A: rec‐CTI R42A/R43A double mutant (protein)
chain: B1 chain with A35L, R42A, R43A
modifications: assayed as His6-GST fusion (tag omitted); disulfides
B6: in assay [2] (setting [6]), the “pIC50 ± SE” value is reported as 4.98 ± 0.02.

B7: W22A: rec‐CTI variant, alanine substitution of Trp22 (protein)
chain: B1 chain with W22A, A35L
modifications: assayed as His6-GST fusion (tag omitted); disulfides
Consider B7, for which the “pIC50 ± SE” value in assay [2] (setting [6]) amounted to 4.72 ± 0.24.

B8: R27A: rec‐CTI variant, alanine substitution of Arg27 (protein)
chain: B1 chain with R27A, A35L
modifications: assayed as His6-GST fusion (tag omitted); disulfides
On to B8, for which the “pIC50 ± SE” value in assay [2] (setting [6]) amounted to 6.78 ± 0.04.

B9: R27A/R42A: rec‐CTI double substitution R27A/R42A (protein)
chain: B1 chain with R27A, A35L, R42A
modifications: assayed as His6-GST fusion (tag omitted); disulfides
As to B9, in assay [2] (setting [6]), the “pIC50 ± SE” value is on record as 6.80 ± 0.05.

The term IC50 denotes the midpoint of a concentration-inhibition curve. A low value points to higher potency.
